Assay results taken from paper PMC12358912, “NIPBL and STAG1 enable loop extrusion by providing differential DNA–cohesin affinity” (Proceedings of the National Academy of Sciences of the …, 2024).

Key:
[1] = biological target: T1, SMC1/SMC3/SCC1 cohesin Trimer (UniProt Q14683 1-1233; Q9UQE7 1-1217; O60216 1-631); experiment: mass photometry; in solution; KD from evaluating the individual mass distributions of the STAG1 and cohesin Trimer mixtures directly (single-shot); details: both partners purified
T1 construct: SMC1 subunit of the cohesin Trimer; SMC3 subunit of the cohesin Trimer; kleisin SCC1 (also known as RAD21 or Mcd1) of the cohesin Trimer; also called the cohesin Trimer; Trimer (SMC1/SMC3/SCC); copies: + +
T1 sequence (Q14683 whole entry, chain 1 of 3): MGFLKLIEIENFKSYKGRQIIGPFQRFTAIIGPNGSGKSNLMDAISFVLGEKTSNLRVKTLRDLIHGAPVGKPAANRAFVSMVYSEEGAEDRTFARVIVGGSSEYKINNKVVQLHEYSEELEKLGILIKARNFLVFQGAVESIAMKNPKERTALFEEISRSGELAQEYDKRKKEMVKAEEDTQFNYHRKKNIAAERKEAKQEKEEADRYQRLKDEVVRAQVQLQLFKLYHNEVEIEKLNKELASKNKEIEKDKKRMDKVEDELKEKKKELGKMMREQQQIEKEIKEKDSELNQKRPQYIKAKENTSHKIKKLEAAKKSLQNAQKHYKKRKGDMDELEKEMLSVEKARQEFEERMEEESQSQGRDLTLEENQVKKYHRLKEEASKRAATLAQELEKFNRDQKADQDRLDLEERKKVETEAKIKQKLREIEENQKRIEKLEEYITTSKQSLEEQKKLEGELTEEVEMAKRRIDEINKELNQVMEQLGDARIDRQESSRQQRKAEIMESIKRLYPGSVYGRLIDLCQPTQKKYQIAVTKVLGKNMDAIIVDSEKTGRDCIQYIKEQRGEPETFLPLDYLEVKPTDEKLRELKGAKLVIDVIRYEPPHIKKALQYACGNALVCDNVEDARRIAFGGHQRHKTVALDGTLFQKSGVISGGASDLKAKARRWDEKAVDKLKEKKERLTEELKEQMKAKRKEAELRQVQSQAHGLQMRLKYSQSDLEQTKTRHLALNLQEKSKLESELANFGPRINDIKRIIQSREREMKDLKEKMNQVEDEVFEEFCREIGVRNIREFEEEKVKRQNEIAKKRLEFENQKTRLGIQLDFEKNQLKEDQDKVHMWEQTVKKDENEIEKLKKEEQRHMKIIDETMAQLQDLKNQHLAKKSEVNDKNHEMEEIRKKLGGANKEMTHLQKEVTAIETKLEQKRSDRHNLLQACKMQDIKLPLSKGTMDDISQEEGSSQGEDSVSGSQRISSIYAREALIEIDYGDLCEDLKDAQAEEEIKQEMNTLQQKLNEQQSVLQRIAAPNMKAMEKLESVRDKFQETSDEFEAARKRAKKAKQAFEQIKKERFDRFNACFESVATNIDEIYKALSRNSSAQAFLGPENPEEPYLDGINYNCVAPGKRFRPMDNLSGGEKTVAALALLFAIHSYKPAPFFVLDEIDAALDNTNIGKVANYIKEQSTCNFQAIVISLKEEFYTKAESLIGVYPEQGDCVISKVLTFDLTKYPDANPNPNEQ
T1 sequence (Q9UQE7 whole entry, chain 2 of 3): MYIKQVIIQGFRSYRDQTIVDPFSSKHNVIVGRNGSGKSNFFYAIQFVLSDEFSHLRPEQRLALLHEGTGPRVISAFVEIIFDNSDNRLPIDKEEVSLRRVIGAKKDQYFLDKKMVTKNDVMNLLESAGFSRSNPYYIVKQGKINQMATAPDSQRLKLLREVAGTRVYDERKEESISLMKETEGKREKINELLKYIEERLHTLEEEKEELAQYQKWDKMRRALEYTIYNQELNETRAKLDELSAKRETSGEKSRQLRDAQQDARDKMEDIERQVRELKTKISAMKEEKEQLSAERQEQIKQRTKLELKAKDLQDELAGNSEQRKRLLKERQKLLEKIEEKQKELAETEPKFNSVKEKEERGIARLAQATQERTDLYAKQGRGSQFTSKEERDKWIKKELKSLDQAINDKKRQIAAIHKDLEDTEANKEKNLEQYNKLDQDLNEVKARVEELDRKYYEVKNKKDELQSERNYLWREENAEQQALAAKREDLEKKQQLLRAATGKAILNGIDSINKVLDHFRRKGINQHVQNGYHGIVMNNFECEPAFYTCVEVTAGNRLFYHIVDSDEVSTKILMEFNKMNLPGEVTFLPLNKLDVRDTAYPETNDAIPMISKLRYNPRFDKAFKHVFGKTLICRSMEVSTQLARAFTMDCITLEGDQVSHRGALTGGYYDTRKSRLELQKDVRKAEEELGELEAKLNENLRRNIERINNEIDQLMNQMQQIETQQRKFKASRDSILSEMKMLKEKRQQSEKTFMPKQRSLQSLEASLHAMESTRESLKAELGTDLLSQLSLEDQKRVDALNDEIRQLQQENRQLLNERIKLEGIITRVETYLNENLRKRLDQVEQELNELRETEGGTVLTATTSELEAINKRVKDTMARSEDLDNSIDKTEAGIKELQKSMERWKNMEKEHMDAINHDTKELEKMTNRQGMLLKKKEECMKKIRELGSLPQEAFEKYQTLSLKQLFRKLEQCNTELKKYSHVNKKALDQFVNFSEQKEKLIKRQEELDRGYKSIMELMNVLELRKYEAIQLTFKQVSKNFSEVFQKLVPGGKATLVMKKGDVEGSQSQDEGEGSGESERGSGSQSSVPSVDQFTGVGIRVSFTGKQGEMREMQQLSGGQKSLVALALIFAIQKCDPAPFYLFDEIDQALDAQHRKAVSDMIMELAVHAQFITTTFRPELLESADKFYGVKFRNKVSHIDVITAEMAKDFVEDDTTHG
T1 sequence (O60216 whole entry, chain 3 of 3): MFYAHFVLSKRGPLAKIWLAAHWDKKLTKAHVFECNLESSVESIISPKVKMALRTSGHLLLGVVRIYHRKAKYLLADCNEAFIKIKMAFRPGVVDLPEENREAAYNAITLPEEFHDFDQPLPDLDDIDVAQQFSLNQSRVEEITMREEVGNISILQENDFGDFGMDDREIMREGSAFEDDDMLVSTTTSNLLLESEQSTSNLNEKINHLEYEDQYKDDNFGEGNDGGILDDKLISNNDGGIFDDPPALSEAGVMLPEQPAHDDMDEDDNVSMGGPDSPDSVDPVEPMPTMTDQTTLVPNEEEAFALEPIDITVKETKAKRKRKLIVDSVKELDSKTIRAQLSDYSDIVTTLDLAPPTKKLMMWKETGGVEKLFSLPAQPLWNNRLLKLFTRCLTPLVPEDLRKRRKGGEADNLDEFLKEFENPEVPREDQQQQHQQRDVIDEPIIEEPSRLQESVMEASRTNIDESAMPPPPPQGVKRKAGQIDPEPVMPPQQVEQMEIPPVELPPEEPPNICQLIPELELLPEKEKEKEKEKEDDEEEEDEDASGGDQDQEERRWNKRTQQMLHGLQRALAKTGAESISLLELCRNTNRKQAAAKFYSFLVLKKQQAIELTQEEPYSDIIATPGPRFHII

[2] = biological target: T1, SMC1/SMC3/SCC1 cohesin Trimer; experiment: mass photometry; in solution; titration at constant cohesin Trimer (50 nM total protein, 12.6 ± 0.9 nM effective Trimer), STAG1 3 to 30 nM, six concentrations with 3 technical repeats each; incubated to equilibrium; molar fraction of the complex fitted to the Hill equation; details: both partners purified

- Kd [1]: 5.4 ± 1.7 nM
- Kd [2]: 6.2 ± 0.7 nM
B1: STAG1 (natural protein, human, UniProt Q8WVM7 1-1258, looked up)
chain: MITSELPVLQDSTNETTAHSDAGSELEETEVKGKRKRGRPGRPPSTNKKPRKSPGEKSRIEAGIRGAGRGRANGHPQQNGEGEPVTLFEVVKLGKSAMQSVVDDWIESYKQDRDIALLDLINFFIQCSGCRGTVRIEMFRNMQNAEIIRKMTEEFDEDSGDYPLTMPGPQWKKFRSNFCEFIGVLIRQCQYSIIYDEYMMDTVISLLTGLSDSQVRAFRHTSTLAAMKLMTALVNVALNLSIHQDNTQRQYEAERNKMIGKRANERLELLLQKRKELQENQDEIENMMNSIFKGIFVHRYRDAIAEIRAICIEEIGVWMKMYSDAFLNDSYLKYVGWTLHDRQGEVRLKCLKALQSLYTNRELFPKLELFTNRFKDRIVSMTLDKEYDVAVEAIRLVTLILHGSEEALSNEDCENVYHLVYSAHRPVAVAAGEFLHKKLFSRHDPQAEEALAKRRGRNSPNGNLIRMLVLFFLESELHEHAAYLVDSLWESSQELLKDWECMTELLLEEPVQGEEAMSDRQESALIELMVCTIRQAAEAHPPVGRGTGKRVLTAKERKTQIDDRNKLTEHFIITLPMLLSKYSADAEKVANLLQIPQYFDLEIYSTGRMEKHLDALLKQIKFVVEKHVESDVLEACSKTYSILCSEEYTIQNRVDIARSQLIDEFVDRFNHSVEDLLQEGEEADDDDIYNVLSTLKRLTSFHNAHDLTKWDLFGNCYRLLKTGIEHGAMPEQIVVQALQCSHYSILWQLVKITDGSPSKEDLLVLRKTVKSFLAVCQQCLSNVNTPVKEQAFMLLCDLLMIFSHQLMTGGREGLQPLVFNPDTGLQSELLSFVMDHVFIDQDEENQSMEGDEEDEANKIEALHKRRNLLAAFSKLIIYDIVDMHAAADIFKHYMKYYNDYGDIIKETLSKTRQIDKIQCAKTLILSLQQLFNELVQEQGPNLDRTSAHVSGIKELARRFALTFGLDQIKTREAVATLHKDGIEFAFKYQNQKGQEYPPPNLAFLEVLSEFSSKLLRQDKKTVHSYLEKFLTEQMMERREDVWLPLISYRNSLVTGGEDDRMSVNSGSSSSKTSSVRNKKGRPPLHKKRVEDESLDNTWLNRTDTMIQTPGPLPAPQLTSTVLRENSRPMGDQIQEPESEHGSEPDFLHNPQMQISWLGQPKLEDLNRKDRTGMNYMKVRTGVRHAVRGLMEEDAEPIFEDVMMSSRSQLEDMNEEFEDTMVIDLPPSRNRRERAELRPDFFDSAAIIEDDSGFGMPMF
notes: human STAG1, a HAWK subunit of cohesin; measured at 148 ± 2 kDa by mass photometry; also called Scc3
